The values that follow come from paper PMC7032593 (Nature cell biology, 2019).

The target in assay [1] is GST-ATG12-5–16L1β complex (human, UniProt O94817 1-140; Q9H1Y0 1-275; Q676U5 1-607). Kind of assay: pull-down.
Assay [2] deals with ATG16L1β (full-length human ATG16L1, β isoform) (human, UniProt Q676U5 1-607). As to the kind of experiment: tandem affinity co-purification.
Sequence of ATG16L1β (full-length human ATG16L1, β isoform) (Q676U5 whole entry, canonical isoform): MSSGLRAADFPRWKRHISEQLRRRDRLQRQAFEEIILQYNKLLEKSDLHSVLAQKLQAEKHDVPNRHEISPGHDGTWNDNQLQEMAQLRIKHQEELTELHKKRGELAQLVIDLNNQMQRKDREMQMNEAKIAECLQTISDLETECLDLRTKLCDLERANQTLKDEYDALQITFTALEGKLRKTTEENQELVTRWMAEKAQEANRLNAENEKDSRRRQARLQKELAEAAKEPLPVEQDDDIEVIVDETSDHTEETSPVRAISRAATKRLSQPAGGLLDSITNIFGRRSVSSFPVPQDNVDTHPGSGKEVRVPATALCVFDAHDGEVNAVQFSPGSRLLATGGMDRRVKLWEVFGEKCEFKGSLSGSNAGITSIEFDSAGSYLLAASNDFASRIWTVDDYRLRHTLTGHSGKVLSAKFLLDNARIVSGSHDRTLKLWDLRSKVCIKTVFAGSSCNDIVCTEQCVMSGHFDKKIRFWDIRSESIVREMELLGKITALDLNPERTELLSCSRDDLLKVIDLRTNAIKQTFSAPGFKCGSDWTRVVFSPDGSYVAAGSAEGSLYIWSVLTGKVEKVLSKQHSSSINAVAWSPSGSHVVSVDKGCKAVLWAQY

Sequence of GST-ATG12-5–16L1β complex (Q676U5 whole entry, canonical isoform, one chain of several): as the sequence (Q676U5 whole entry, canonical isoform) above

B1: ATG3 WT (enzyme)
chain: not shown
Take B1: the binding result in assay [1] is given as “binds”.

B2: ATG12–ATG5 conjugate (GST-ATG12 with untagged ATG5) (complex, human)
chain 1: MAEEPQSVLQLPTSIAAGGEGLTDVSPETTTPEPPSSAAVSPGTEEPAGDTKKKIDILLKAVGDTPIMKTKKWAVERTRTIQGLIDFIKKFLKLVASEQLFIYVNQSFAPSPDQEVGTLYECFGSDGKLVLHYCKSQAWG
chain 2: MTDDKDVLRDVWFGRIPTCFTLYQDEITEREAEPYYLLLPRVSYLTLVTDKVKKHFQKVMRQEDISEIWFEYEGTPLKWHYPIGLLFDLLASSSALPWNITVHFKSFPEKDLLHCPSKDAIEAHFMSCMKEADALKHKSQVINEMQKKDHKQLWMGLQNDRFDQFWAINRKLMEYPAEENGFRYIPFRIYQTTTERPFIQKLFRPVAADGQLHTLGDLLKEVCPSAIDPEDGEKKNQVMIHGIEPMLETPLQWLSEHLSYPDNFLHISIIPQPTD
Consider B2, for which the binding result in assay [2] is reported as “binds”.
